Positions count from the first letter of the chain named. Numbers in names are those of the source.
Legend:
[1] = target: T1, Fhm, hTL1A(Q167R), soluble, CHO-expressed, residues 72-251 of SEQ ID NO:246 (human, UniProt O95150 72-251); experiment: ELISA, blocks FHM (10 pM) binding hDcR3-Fc; blocking of FHM binding to DcR3
T1 construct: also called Fhm (CHO); FHM (CHO)
T1 chain: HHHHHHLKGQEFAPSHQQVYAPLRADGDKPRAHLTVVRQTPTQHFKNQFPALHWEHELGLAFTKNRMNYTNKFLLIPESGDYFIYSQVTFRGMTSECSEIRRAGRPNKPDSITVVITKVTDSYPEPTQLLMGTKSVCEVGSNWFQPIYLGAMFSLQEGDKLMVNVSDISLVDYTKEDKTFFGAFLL
Description: (§1) The ability of antibodies to block human TL1A binding to its cognate receptors, the DR3 and DcR3 receptors, was measured using a competition sandwich ELISA. In addition, blocking of a human TL1A variant FHM (human TL1A Q167R) and the cynomolgus monkey (Macaca fascicularis) TL1A (MfTL1A) protein binding to the human DR3 or DcR3 receptors was measured in the same manner. Constant amounts of biotinylated human TL1A or FHM (both expressed with a 6-His tag in CHO cells) or biotinylated MfTL1A (expressed in CHO cells) were separately titrated with varying amounts of antibodies. The antibody-protein complexes were incubated in solution (1 hr, 25° C.) and then transferred to microtiter plates coated with human DR3 (hDR3) or human DcR3 (hDcR3) expressed as human IgG1 Fc fusion proteins. After one hour at 25° C. the wells were washed, and bound human or monkey TL1A was detected with streptavidin conjugated with horseradish peroxidase (HRP). Wells were developed with a TMB solution to produce a colorimetric reaction and quenched with aqueous sulfuric acid before reading absorbance at 450 nm on a Perkin-Elmer Victor X5 plate reader. A sigmoidal dose-response curve was fit to the data using the Prism™ data analysis package. […] Both fully human anti-hTL1A mAbs and comparator antibodies, i.e., control mAb1 (an anti-hTL1A antibody with heavy and light chain variable domains having the amino acid sequences corresponding to SEQ ID NOS:21 and 27, respectively, of US 2009/0280116) and control mAb3 (an anti-hTL1A antibody with heavy and light chain variable domains having the amino acid sequences corresponding to SEQ ID NOS:57 and 48, respectively, of US 2009/0280116), were included in the study. NB: No binding under the conditions tested; NT: Not tested. Concentrations of biotinylated soluble ligands: (1) 150 pM; (2) 500 pM; (3) 10 pM; and (4) 50 pM.

[2] = target: T1, Fhm, hTL1A(Q167R), soluble, …; experiment: ELISA, blocks FHM (150 pM) binding hDR3-Fc; blocking of FHM binding to hDR3
Description: as §1

[3] = target: T2, rat TL1A, soluble, CHO-expressed, residues 76-252 of SEQ ID NO:258 with N-terminal His6-tag (rat, UniProt Q8K3Y7 76-252); experiment: SPR 37C, mAb captured; kd set at 1e-6 1/s
T2 construct: also called rTL1A; rTL1A (CHO)
T2 sequence: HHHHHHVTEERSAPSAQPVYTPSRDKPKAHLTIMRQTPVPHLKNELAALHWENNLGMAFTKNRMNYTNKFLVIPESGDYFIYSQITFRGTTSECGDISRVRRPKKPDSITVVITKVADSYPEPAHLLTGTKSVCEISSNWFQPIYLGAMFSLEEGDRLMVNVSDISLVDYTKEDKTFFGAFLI
Outline: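 Biacore T100 SPR with captured mAb and soluble TL1A/Fhm analyte; ka and kd fitted to a 1:1 model assuming monomeric TL1A. KD = kd/ka; t1/2 (min) = ln2/(60·kd).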

[4] = target: T3, cynomolgus monkey TL1A, soluble, CHO-expressed, residues 72-251 of SEQ ID NO:248 with N-terminal His6-tag (cynomolgus monkey (Macaca fascicularis), UniProt O95150 72-251 (human entry)); experiment: SPR 25C, mAb captured; SPR, 25 C
T3 construct: also called MfTL1A; MfTL1A (CHO)
T3 chain: T1 chain with F45L, I84V, R102Q

[5] = target: T3, cynomolgus monkey TL1A, soluble, …; experiment: SPR 37C, mAb captured; SPR, 37 C
Description: (§2) Measurements were conducted on a T100 BIACORE™ instrument. […] Kinetic association (kₐ) and dissociation (kd) rate constants were determined by fitting the data to a 1:1 binding model using BIAevaluation 4.1 curve fitting software (BIAcore Life Sciences). Molar concentrations of TL1A/Fhm used in the data fitting assumed a monomeric state for TL1A in solution. Binding dissociation equilibrium constants (KD) and dissociative half-lives (t_{1/2}) were calculated from the kinetic rate constants as: KD (M)=kd/kₐ; and t_{1/2} (min)=[In2/(60*kd)].

[6] = target: T3, cynomolgus monkey TL1A, soluble, …; experiment: ELISA, blocks MfTL1A (500 pM) binding hDR3-Fc; blocking of MfTL1A binding to hDR3
Description: The ability of antibodies to block human TL1A binding to its cognate receptors, the DR3 and DcR3 receptors, was measured using a competition sandwich ELISA. In addition, blocking of a human TL1A variant FHM (human TL1A Q167R) and the cynomolgus monkey (Macaca fascicularis) TL1A (MfTL1A) protein binding to the human DR3 or DcR3 receptors was measured in the same manner. Constant amounts of biotinylated human TL1A or FHM (both expressed with a 6-His tag in CHO cells) or biotinylated MfTL1A (expressed in CHO cells) were separately titrated with varying amounts of antibodies. The antibody-protein complexes were incubated in solution (1 hr, 25° C.) and then transferred to microtiter plates coated with human DR3 (hDR3) or human DcR3 (hDcR3) expressed as human IgG1 Fc fusion proteins. After one hour at 25° C. the wells were washed, and bound human or monkey TL1A was detected with streptavidin conjugated with horseradish peroxidase (HRP). Wells were developed with a TMB solution to produce a colorimetric reaction and quenched with aqueous sulfuric acid before reading absorbance at 450 nm on a Perkin-Elmer Victor X5 plate reader. A sigmoidal dose-response curve was fit to the data using the Prism™ data analysis package. […]

[7] = target: T4, human TL1A, soluble, CHO-expressed, residues 72-251 of SEQ ID NO:244 with N-terminal His6-tag (human, UniProt O95150 72-251); experiment: SPR 25C, mAb captured; kd set at 1e-6 1/s; 25 C; kd set at 1x10^-6 1/s
T4 construct: also called hTL1A; hTL1A (CHO)
T4 sequence: T1 chain with R102Q
Description: as §2

[8] = target: T4, human TL1A, soluble, CHO-expressed, …; experiment: SPR 25C, mAb captured; kd set at 1e-6 1/s
Description: as §2

B1: H4H1681N (antibody, human IgG4 S228P, V domains shown)
VH: EVQLLESGGGLVQPGKSLRLSCAVSGFTFSTYGMNWVRQAPGKGLEWVSSISGTGRTTYHADSVQGRFTVSRDNSKNILYLQMNSLRADDTAVYFCTKERGDYYYGVFDYWGQGTLVTVSS
VL: DIQMTQSPSTLSASVGDRVTITCRASQTISSWLAWYQQTPEKAPKLLIYAASNLQSGVPSRFSGSGSGTEFTLTISSLQPDDFATYYCQQYHRSWTFGQGTKVEIT
B1 gave an IC50 [1] of 0.09 nM.

B2: H4H1804N (antibody, human IgG4 S228P, V domains shown)
VH: QVQLHQWGAGLLKPSETLSLTCAVSGVSFSDYHWAWIRQSPGKGLEWIGDINHRGRTNYNPSLKSRVTISLDTSGNPFSLKLTSVTAADTAVYYCARDFPNWVFDSWGQGILVTVSS
VL: EIVLSQSPGTLSLSPGERATLSCRASQSVSSSFLAWYQQYPGQAPRLLIYGASRRATGIPDRFRGSGSGTDFTLTISRLEPEDFAVYYCQQYGSSPLTFGGGTKVENK
notes: human IgG4(S108P) form of H2M1804N
B2 showed an IC50 [2] of 0.069 nM.

B3: H4H1805N (antibody, human IgG4 S228P, V domains shown)
VH: QVQLQQWGAGLLKPSETLSLTCAVYGGSFTGFYWSWIRQPPGKGLEWIGEINHRGNTNYNPSLKSRVTMSVDTSKNQFSLNMISVTAADTAMYFCASPFYDFWSGSDYWGQGTLVTVSS
VL: DIMLTQTPLTSPVTLGQPASISCKSSQSLVHSDGNTYLSWLQQRPGQPPRLLFYKISNRFSGVPDRFSGSGAGTDFTLKISRVEAEDVGVYYCMQATQFPLTFGGGTKVEIK
notes: human IgG4(S108P) form of H2M1805N
With B3 the IC50 [1] was 0.436 nM.

B4: H4H1818N (antibody, human IgG4 S228P, V domains shown)
VH: RLQLVESGGGLVKPGGSLKLSCAASGFTISDYYMSWIRQAPGKGLEWVSYIGGSGSTIYYADSVKGRFTISRDNAKNSLYLQMNSLRAEDTAVYYCAREDADSYYYYGMDVWGQGTTVTVSS
VL: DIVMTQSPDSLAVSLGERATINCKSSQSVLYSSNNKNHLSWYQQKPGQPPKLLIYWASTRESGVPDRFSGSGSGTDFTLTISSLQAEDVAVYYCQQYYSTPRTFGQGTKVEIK
notes: human IgG4(S108P) form of H2M1818N
B4 showed a Kd [3] of at most 0.00061 nM and a t1/2 [3] of at least 192 h.

B5: H4H1750P (antibody, human IgG4 S228P, V domains shown)
VH: QVQLVESGGGVVQPGRSLRLSCVASGFTFSNYGMHWVRQAPGKGLEWVAVISYDGNNDLYSDSVKGRFTISRDNAKNALSLQMTSLRAEDTAVYYCARDSTMTPYYYHGIDVWGQGTTVTVSA
VL: DIQMTQSPSSLSASVGDRVTITCRASQDIRNDLGWYQQKPGKAPKRLIYAASSLQSGVPSRFSGSGSGTDFTLTISSLQPEDFATYYCLQHNSYPPTFGQGTKVEIK
Work on B5 yielded a Kd [4] of 8.6 nM, a t1/2 [4] of 21 min and a Kd [5] of 17.1 nM. The t1/2 [5] was 11 min, the IC50 [6] was 5.21 nM and the Kd [7] was at most 0.0158 nM. It also gave a t1/2 [8] of at least 192 h.

Source: patent US20140120109A1 (Regeneron, published 2014)
